According to US12692305:

Columns and labels:
[1] = target: PD-1 on in vitro activated primary human T cells (human) (UniProt Q15116); assay: flow cytometry, detection antibody on Ki-67+ CD4+ activated T cells, media only
[2] = target: PD-1 on in vitro activated primary human T cells (human) (UniProt Q15116); assay: flow cytometry, detection antibody on Ki-67+ CD8+ activated T cells, media only
[3] = target: PD-1 on in vitro activated primary human T cells (human) (UniProt Q15116); assay: flow cytometry, detection antibody on Ki-67+ CD4+ activated T cells after 4 d with 1 nM IL-15 alone
[4] = target: PD-1 on in vitro activated primary human T cells (human) (UniProt Q15116); assay: flow cytometry, detection antibody on Ki-67+ CD8+ activated T cells after 4 d with 1 nM IL-15 alone
[5] = target: PD-1 on in vitro activated primary human T cells (human) (UniProt Q15116); assay: flow cytometry, detection antibody on Ki-67+ CD4+ activated T cells after 4 d with 10 nM IL-15 alone
[6] = target: PD-1 on in vitro activated primary human T cells (human) (UniProt Q15116); assay: flow cytometry, detection antibody on Ki-67+ CD8+ activated T cells after 4 d with 10 nM IL-15 alone
[7] = target: PD-1 on in vitro activated primary human T cells (human) (UniProt Q15116); assay: flow cytometry, detection antibody on Ki-67+ CD4+ activated T cells after 4 d with 100 nM IL-15 alone
[8] = target: PD-1 on in vitro activated primary human T cells (human) (UniProt Q15116); assay: flow cytometry, detection antibody on Ki-67+ CD8+ activated T cells after 4 d with 100 nM IL-15 alone
[9] = target: PD-1 on in vitro activated primary human T cells (human) (UniProt Q15116); assay: flow cytometry, detection antibody on Ki-67+ CD4+ activated T cells after 4 d with 1 nM RV1 precomplexed with IL-15
[10] = target: PD-1 on in vitro activated primary human T cells (human) (UniProt Q15116); assay: flow cytometry, detection antibody on Ki-67+ CD4+ activated T cells after 4 d with 1 nM RV2 precomplexed with IL-15
[11] = target: PD-1 on in vitro activated primary human T cells (human) (UniProt Q15116); assay: flow cytometry, detection antibody on Ki-67+ CD8+ activated T cells after 4 d with 1 nM RV1 precomplexed with IL-15
[12] = target: PD-1 on in vitro activated primary human T cells (human) (UniProt Q15116); assay: flow cytometry, detection antibody on Ki-67+ CD8+ activated T cells after 4 d with 1 nM RV2 precomplexed with IL-15
[13] = target: PD-1 on in vitro activated primary human T cells (human) (UniProt Q15116); assay: flow cytometry, detection antibody on Ki-67+ CD4+ activated T cells after 4 d with 10 nM RV1 precomplexed with IL-15
[14] = target: PD-1 on in vitro activated primary human T cells (human) (UniProt Q15116); assay: flow cytometry, detection antibody on Ki-67+ CD4+ activated T cells after 4 d with 10 nM RV2 precomplexed with IL-15
[15] = target: PD-1 on in vitro activated primary human T cells (human) (UniProt Q15116); assay: flow cytometry, detection antibody on Ki-67+ CD8+ activated T cells after 4 d with 10 nM RV1 precomplexed with IL-15
[16] = target: PD-1 on in vitro activated primary human T cells (human) (UniProt Q15116); assay: flow cytometry, detection antibody on Ki-67+ CD8+ activated T cells after 4 d with 10 nM RV2 precomplexed with IL-15
[17] = target: PD-1 on in vitro activated primary human T cells (human) (UniProt Q15116); assay: flow cytometry, detection antibody on Ki-67+ CD4+ activated T cells after 4 d with 100 nM RV1 precomplexed with IL-15
[18] = target: PD-1 on in vitro activated primary human T cells (human) (UniProt Q15116); assay: flow cytometry, detection antibody on Ki-67+ CD4+ activated T cells after 4 d with 100 nM RV2 precomplexed with IL-15
[19] = target: PD-1 on in vitro activated primary human T cells (human) (UniProt Q15116); assay: flow cytometry, detection antibody on Ki-67+ CD8+ activated T cells after 4 d with 100 nM RV1 precomplexed with IL-15
[20] = target: PD-1 on in vitro activated primary human T cells (human) (UniProt Q15116); assay: flow cytometry, detection antibody on Ki-67+ CD8+ activated T cells after 4 d with 100 nM RV2 precomplexed with IL-15
[21] = target: PD-1 on in vitro activated primary human T cells (human) (UniProt Q15116); assay: flow cytometry, detection antibody on Ki-67+ CD4+ activated T cells after 4 d with 1 nM IL-15Rα-Fc precomplexed with IL-15
[22] = target: PD-1 on in vitro activated primary human T cells (human) (UniProt Q15116); assay: flow cytometry, detection antibody on Ki-67+ CD8+ activated T cells after 4 d with 1 nM IL-15Rα-Fc precomplexed with IL-15
[23] = target: PD-1 on in vitro activated primary human T cells (human) (UniProt Q15116); assay: flow cytometry, detection antibody on Ki-67+ CD4+ activated T cells after 4 d with 10 nM IL-15Rα-Fc precomplexed with IL-15
[24] = target: PD-1 on in vitro activated primary human T cells (human) (UniProt Q15116); assay: flow cytometry, detection antibody on Ki-67+ CD8+ activated T cells after 4 d with 10 nM IL-15Rα-Fc precomplexed with IL-15
[25] = target: PD-1 on in vitro activated primary human T cells (human) (UniProt Q15116); assay: flow cytometry, detection antibody on Ki-67+ CD4+ activated T cells after 4 d with 100 nM IL-15Rα-Fc precomplexed with IL-15
[26] = target: PD-1 on in vitro activated primary human T cells (human) (UniProt Q15116); assay: flow cytometry, detection antibody on Ki-67+ CD8+ activated T cells after 4 d with 100 nM IL-15Rα-Fc precomplexed with IL-15
[27] = target: PD-1 on in vitro activated primary human T cells (human) (UniProt Q15116); assay: flow cytometry, detection antibody on Ki-67+ CD4+ activated T cells; average pooled over non-PD-1-binding test samples and concentrations
[28] = target: PD-1 on in vitro activated primary human T cells (human) (UniProt Q15116); assay: flow cytometry, detection antibody on Ki-67+ CD8+ activated T cells; average pooled over non-PD-1-binding test samples and concentrations
[29] = target: PD-1 on in vitro activated primary human T cells (human) (UniProt Q15116); assay: flow cytometry, residual staining by detection antibody on Ki-67+ CD4+ activated T cells in the presence of competitors RV29 and RV32 (IL-15 precomplexed); average pooled over both constructs and 100, 10 and 1 nM
[30] = target: PD-1 on in vitro activated primary human T cells (human) (UniProt Q15116); assay: flow cytometry, residual staining by detection antibody on Ki-67+ CD8+ activated T cells in the presence of competitors RV29 and RV32 (IL-15 precomplexed); average pooled over both constructs and 100, 10 and 1 nM

PD-1 on in vitro activated primary human T cells (human), sequence (Q15116 25-288): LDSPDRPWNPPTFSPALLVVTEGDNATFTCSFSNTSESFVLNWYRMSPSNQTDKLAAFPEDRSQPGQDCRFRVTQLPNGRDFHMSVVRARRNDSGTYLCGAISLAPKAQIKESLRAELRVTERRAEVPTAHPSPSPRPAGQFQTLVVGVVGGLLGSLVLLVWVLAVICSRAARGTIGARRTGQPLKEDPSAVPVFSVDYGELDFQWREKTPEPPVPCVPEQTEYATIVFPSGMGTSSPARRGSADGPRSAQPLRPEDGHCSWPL

MFI of PD-1 staining [1]: 4020 MFI | MFI of PD-1 staining [2]: 2250 MFI | MFI of PD-1 staining [3]: 4870 MFI | MFI of PD-1 staining [4]: 2050 MFI | MFI of PD-1 staining [5]: 6440 MFI | MFI of PD-1 staining [6]: 3190 MFI | MFI of PD-1 staining [7]: 6550 MFI | MFI of PD-1 staining [8]: 3220 MFI | MFI of PD-1 staining [9]: 4100 MFI | MFI of PD-1 staining [10]: 4200 MFI | MFI of PD-1 staining [11]: 1870 MFI | MFI of PD-1 staining [12]: 1920 MFI | MFI of PD-1 staining [13]: 4620 MFI | MFI of PD-1 staining [14]: 5070 MFI | MFI of PD-1 staining [15]: 1890 MFI | MFI of PD-1 staining [16]: 2020 MFI | MFI of PD-1 staining [17]: 4830 MFI | MFI of PD-1 staining [18]: 5840 MFI | MFI of PD-1 staining [19]: 2370 MFI | MFI of PD-1 staining [20]: 2820 MFI | MFI of PD-1 staining [21]: 4280 MFI | MFI of PD-1 staining [22]: 1690 MFI | MFI of PD-1 staining [23]: 4480 MFI | MFI of PD-1 staining [24]: 2120 MFI | MFI of PD-1 staining [25]: 4380 MFI | MFI of PD-1 staining [26]: 2110 MFI | MFI of PD-1 staining (average) [27]: 4830 MFI | MFI of PD-1 staining (average) [28]: 2190 MFI | MFI of PD-1 staining (average) [29]: 3090 MFI | MFI of PD-1 staining (average) [30]: 1460 MFI
Substance: PD-1 detection antibody (clone EH12.21H7)
